The text below walks through data of patent publication US20190269786A1 (published 2019).

Read-outs that look alike come from different tables or passages of the source.

Assay [1] addresses T1, folate receptor 1 (FOLR1) (human, UniProt P15328 25-234). Nature of the assay: flow cytometry binding on T47D cells. (In general: A flow cytometer gives signals particle by particle.)
Assay [2] has as its target T1, folate receptor 1 (FOLR1). Nature of the assay: flow cytometry binding on T47D cells. This is another data set of the same source.

T1 sequence (P15328 25-234): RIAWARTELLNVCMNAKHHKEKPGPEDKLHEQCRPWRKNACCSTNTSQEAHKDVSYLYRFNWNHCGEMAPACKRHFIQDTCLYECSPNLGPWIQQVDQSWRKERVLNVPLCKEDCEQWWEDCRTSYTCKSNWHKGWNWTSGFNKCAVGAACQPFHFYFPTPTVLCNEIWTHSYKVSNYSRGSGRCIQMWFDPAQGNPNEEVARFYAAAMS

B1: huMOV19 antibody (antibody, V domains shown)
VH: QVQLVQSGAEVVKPGASVKISCKASGYTFTGYFMNWVKQSPGQSLEWIGRIHPYDGDTFYNQKFQGKATLTVDKSSNTAHMELLSLTSEDFAVYYCTRYDGSRAMDYWGQGTTVTVSS
VL: DIVLTQSPLSLAVSLGQPAIISCKASQSVSFAGTSLMHWYHQKPGQQPRLLIYRASNLEAGVPDRFSGSGSKTDFTLTISPVEAEDAATYYCQQSREYPYTFGGGTKLEIKR
What is called EC50 is the concentration needed to bring the measured effect to its halfway point. Take B1: the EC50 worked out at 0.144 nM in assay [1] and 0.314 nM in assay [2].
